The test has as its target non-translating 70S ribosome (E. coli) (UniProt P0AG44). The experiment in a line: FRET or BRET. On the technique in general: In BRET a luciferase serves as donor, and the signal depends on an acceptor being close.

Turning to “methionine aminopeptidase MAP(H79A), TMR-labelled (from UniProt P0AE18 1-264) (enzyme)”, the Kd – broadly, the constant that tells how readily two partners part at equilibrium – was determined as 5.4 µM.

Take “peptide deformylase PDF(E133A), TMR-labelled (enzyme)”: the Kd worked out at 7.3 µM.

(Values after PMC9126151.)
